Laboratory results published in PMC7491321.
pKd: −log10 of the molar value.

The substances below were run on FopA (Salmonella enterica serovar Typhimurium SL1344 (plasmid pCol1B9)) (assay: EMSA).
repZ 5'UTR fragment gave a pKd of 6.00. Work on Inc RNA yielded a pKd of 6.00. In the case of Inc-repZ complex, the pKd was 6.00.
